Experimental data from patent publication US7700101B2, “Reagents and method for modulating Dkk-mediated interactions” (Wyeth, priority 2001, dated 2010).

B1: D11: Dkk-1 fragment clone F3/R2: Val 139-Cys245 (protein)
chain: VSSDQNHFRGEIEETITESFGNDHSTLDGYSRRTTLSSKMYHTKGQEGSVCLRSSDCASGLCCARHFWSKICKPVLKEGQVCTKHRRKGSHGLEIFQRCYCGEGLSC
modifications: left off: large carriers
B2: Wnt5a: murine Wnt5a cDNA clone, RNA injected (protein, UniProt P22725 62-380, looked up)
Protein Wnt-5a: IIGAQPLCSQLAGLSQGQKKLCHLYQDHMQYIGEGAKTGIKECQYQFRHRRWNCSTVDNTSVFGRVMQIGSRETAFTYAVSAAGVVNAMSRACREGELSTCGCSRAARPKDLPRDWLWGGCGDNIDYGYRFAKEFVDARERERIHAKGSYESARILMNLHNNEAGRRTVYNLADVACKCHGVSGSCSLKTCWLQLADFRKVGDALKEKYDSAAAMRLNSRGKLVQVNSRFNSPTTQDLVYIDPSPDYCVRNESTGSLGTQGRLCNKTSEGMDGCELMCCGRGYDQFKTVQTERCHCKFHWCCYVKCKKCTEIVDQFVCK

Experiments:
[1] = system: Zmax1/LRP5 ligand binding domain (LBD) baits LBD1 and LBD4; assay: Yeast two hybrid minimum interaction domain mapping of Dkk-1 with LRP5; settings: FIG. 6
From the text: Further analysis of yeast two hybrid (Y2H) interacting proteins includes the dissection of protein motifs responsible for the interaction. Sequence alignment of multiple clones identified in the Y2H screens can help identify the smallest common region responsible for the interaction. In the absence of appropriate clones, deletion mapping of interacting domains is necessary.
PCR primers containing restriction sites suitable for cloning are designed to cover multiple sub-domains of the protein of interest (bait or prey). The methods involved in cloning, sequencing, yeast transformation, mating, and scoring of interactions are readily performed by one of ordinary skill in the art of molecular biology and genetic engineering.
The primers, which are presented in 5′ to 3′ orientation, were as follows: […]
PCR was performed using PfuTurbo® polymerase (Stratagene). The PCR products were gel purified, digested with SaflI/NotI and ligated to pPC86 (Gibco/BRL) which had been linearized with SalI/NotI.
These clones were transformed into yeast and mated with each of three yeast strains containing pDBleu (Gibco/BRL), pDBleuLBD1, and pDBleuLBD4. Positive interactions were detected by growth of the hybrids on appropriate selective media.

Wnt pathway = assay: Xenopus embryo screening for duplicated body axis; format: in vivo; settings: RNA injected into ventral blastomere; LRP5 500 pg, Wnt5a 20 pg
From the text: Modification of the Wnt signaling pathway can be visualized by examining the embryos for a dorsalization phenotype (duplicated body axis) after RNA injection into the ventral blastomere at the 4- or 8-cell stage. On the molecular level, phenotypes can be analyzed by looking for expression of various marker genes in stage 10.5 embryos. Such markers would include general endoderm, mesoderm, and ectoderm markers as well as a variety of tissue-specific transcripts.
mRNA for microinjection into Xenopus embryos is generated by in vitro transcription using the CDNA constructs in the pCS2^+ vector described above as template. RNA is synthesized using the Ambion mMessage mMachine high yield capped RNA transcription kit (Cat. #1340) following the manufacturer's specifications for the Sp6 polymerase reactions. RNA products were brought up to a final volume of 50 μl in sterile, glass-distilled water and purified over Quick Spin-Columns for Radiolabelled RNA Purification G50-Sephadex (Roche, Cat. #1274015) following the manufacturer's specifications. The resulting eluate was finally extracted with phenol:chloroform:isoamyl alcohol and isopropanol precipitated using standard protocols (Sambrook et al., 1989). Final RNA volumes were approximately 50 μl. RNA concentration was determined by absorbance values at 260 nm and 280 nm. […]

Zmax1/LRP5 ligand binding domain (LBD) baits LBD1 and LBD4, sequence (as listed by the source): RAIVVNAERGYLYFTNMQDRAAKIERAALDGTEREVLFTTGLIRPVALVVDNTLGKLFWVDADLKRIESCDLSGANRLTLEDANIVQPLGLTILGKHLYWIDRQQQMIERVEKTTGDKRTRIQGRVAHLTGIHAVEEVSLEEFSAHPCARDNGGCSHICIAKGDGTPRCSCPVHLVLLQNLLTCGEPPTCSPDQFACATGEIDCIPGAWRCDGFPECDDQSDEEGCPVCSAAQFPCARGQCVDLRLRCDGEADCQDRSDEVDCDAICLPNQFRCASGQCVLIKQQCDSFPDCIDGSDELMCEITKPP

Molecule	growth of diploids on selective media (interaction with LRP5 LBD baits) [1]	induction of axis duplication (Wnt pathway)
B1	no growth was observed	
B2		could not induce axis duplication
